Reference: patent publication US20210206851A1 (MacroGenics, published 2021)

What was measured:
[1] = biological target: T1, soluble human LAG-3-Fc fusion protein (shLAG-3-Fc) (human, UniProt P18627 23-450, biotinylated in the Daudi cell assay); test: flow cytometry, blocking of biotinylated soluble human LAG-3-Fc binding to MHC class II on Daudi cells
T1 construct: also called biotinylated-soluble human LAG-3-Fc fusion protein; not shown: Fc portion; detected with goat anti-human Fc gamma
T1 sequence: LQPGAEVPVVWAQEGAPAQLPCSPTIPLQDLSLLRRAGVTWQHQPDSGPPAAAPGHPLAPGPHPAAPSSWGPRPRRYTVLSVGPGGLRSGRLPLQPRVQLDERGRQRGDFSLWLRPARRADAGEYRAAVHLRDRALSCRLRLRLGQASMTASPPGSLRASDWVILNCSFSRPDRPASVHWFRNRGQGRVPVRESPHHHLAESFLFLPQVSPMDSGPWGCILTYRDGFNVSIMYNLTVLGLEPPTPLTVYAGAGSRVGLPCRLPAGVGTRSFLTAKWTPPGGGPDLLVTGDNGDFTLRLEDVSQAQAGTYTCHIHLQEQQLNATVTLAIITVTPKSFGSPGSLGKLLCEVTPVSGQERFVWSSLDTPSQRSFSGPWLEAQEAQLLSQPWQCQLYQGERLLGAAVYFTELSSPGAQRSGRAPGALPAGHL

[2] = biological target: T2, His-tagged soluble human LAG-3 (shLAG-3-His) (human, UniProt P18627 23-450); test: SPR (Biacore); antibody captured on immobilized Fab2 goat-anti-mouse Fc, shLAG-3-His in solution
T2 construct: also called soluble human LAG-3-His fusion protein; extracellular domain of human LAG-3 fused to a His tag; not shown: His tag
T2 sequence: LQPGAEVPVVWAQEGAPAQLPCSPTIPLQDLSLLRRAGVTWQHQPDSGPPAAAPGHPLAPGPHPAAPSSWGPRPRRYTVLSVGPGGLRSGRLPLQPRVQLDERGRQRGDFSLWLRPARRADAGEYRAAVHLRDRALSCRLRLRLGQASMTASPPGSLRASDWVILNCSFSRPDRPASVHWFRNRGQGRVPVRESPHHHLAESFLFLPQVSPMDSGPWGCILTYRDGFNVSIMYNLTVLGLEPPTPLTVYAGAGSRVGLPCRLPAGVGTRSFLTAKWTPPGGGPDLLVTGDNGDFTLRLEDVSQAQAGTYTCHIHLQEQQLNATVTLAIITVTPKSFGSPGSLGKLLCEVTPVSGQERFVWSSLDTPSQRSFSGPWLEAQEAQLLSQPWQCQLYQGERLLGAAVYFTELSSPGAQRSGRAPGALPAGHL

[3] = biological target: T3, soluble human LAG-3 fusion protein (extracellular domain of human LAG-3 fused to murine IgG2a) (human; murine, UniProt P18627 23-450); test: SPR (Biacore); human LAG-3 ECD-murine IgG2a fusion captured on Fab2 goat-anti-mouse Fc, antibody in solution
T3 construct: also called human LAG-3-murine IgG2a fusion protein; not shown: murine IgG2a
T3 sequence: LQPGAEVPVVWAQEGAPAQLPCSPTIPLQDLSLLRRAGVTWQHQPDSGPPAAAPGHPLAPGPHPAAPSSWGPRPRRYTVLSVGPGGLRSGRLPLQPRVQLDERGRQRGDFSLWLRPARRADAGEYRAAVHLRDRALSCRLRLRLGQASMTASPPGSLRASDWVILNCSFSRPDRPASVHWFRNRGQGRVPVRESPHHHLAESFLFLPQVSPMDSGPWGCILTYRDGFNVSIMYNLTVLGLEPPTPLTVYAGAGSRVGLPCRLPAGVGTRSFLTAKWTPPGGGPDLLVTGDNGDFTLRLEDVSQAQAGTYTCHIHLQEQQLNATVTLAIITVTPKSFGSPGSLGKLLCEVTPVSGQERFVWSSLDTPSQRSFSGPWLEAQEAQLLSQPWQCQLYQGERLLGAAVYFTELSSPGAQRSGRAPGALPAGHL

[4] = biological target: T2, His-tagged soluble human LAG-3 …; test: ELISA, blocking; antibody mixed with soluble human LAG-3-His (0.2 ug/ml), binding to immobilized MHC class II
[5] = biological target: T4, soluble cynomolgus monkey LAG-3 fusion protein (extracellular domain of cynomolgus monkey LAG-3 fused to … (cynomolgus monkey; murine); test: SPR (Biacore); cynomolgus LAG-3 ECD-murine IgG2a fusion captured on Fab2 goat-anti-mouse Fc, antibody in solution
T4 construct: extracellular domain; also called cynomolgus LAG-3-murine IgG2a fusion protein

[6] = biological target: T2, His-tagged soluble human LAG-3 …; test: SPR (Biacore); antibody captured on immobilized Protein A, shLAG-3-His in solution
[7] = biological target: T2, His-tagged soluble human LAG-3 …; test: SPR (Biacore); antibody captured on immobilized Fab2 goat anti-human Fc, shLAG-3-His in solution
[8] = biological target: T1, soluble human LAG-3-Fc fusion protein …; test: flow cytometry, blocking of biotinylated soluble human LAG-3-Fc binding to MHC class II on Daudi cells; remark: listed apart in the source
[9] = biological target: T1, soluble human LAG-3-Fc fusion protein …; test: ELISA, blocking; antibody mixed with soluble human LAG-3-Fc (5 ug/mL), binding to immobilized MHC class II
[10] = biological target: T2, His-tagged soluble human LAG-3 …; test: SPR (Biacore); antibody captured on immobilized Protein G, shLAG-3-His in solution

B1: LAG-3 mAb 6 (antibody, V domains shown)
VH: EVLLQQSGPELVKPGASVKIPCKASGYTFTDYNMDWVKQSHGESLEWIGDINPDNGVTIYNQKFEGKATLTVDKSSSTAYMELRSLTSEDTAVYYCAREADYFYFDYWGQGTTLTVSS
VL: DIVMTQSHRFMSTSVGDRVSITCKASQDVSSVVAWYQQKPGQSPKLLIFSASYRYTGVPDRFTGSGSGTDFTFTISSVQAADLAVYYCQQHYSTPWTFGGGTKLEIK
notes: Murine monoclonal antibody
IC50 (read off the curve) [1]: ~0.2 µg/mL | Kd [2]: 0.02 nM

B2: hLAG-3 mAb 1 (1.4) (constant region not stated) (antibody, V domains shown)
VH: QVQLVQSGAEVKKPGASVKVSCKASGYTFTNYGMNWVRQAPGQGLEWMGWINTYTGESTYADDFEGRFVFSMDTSASTAYLQISSLKAEDTAVYYCARESLYDYYSMDYWGQGTTVTVSS
VL: DIVMTQTPLSLSVTPGQPASISCKSSQSLLHSDAKTYLNWLLQKPGQPPERLIYLVSELDSGVPDRFSGSGSGTDFTLKISRVEAEDVGVYYCWQGTHFPYTFGGGTKVEIK
notes: also called hLAG-3 1 (1.4); humanized hLAG-3 1 (1.4)
Kd [3]: < 0.29 nM | IC50 (read off the curve) [4]: ~0.3 nM | Kd [5]: < 0.53 nM

B3: hLAG-3 mAb 1 (1.2), human IgG1 (AA) (antibody, V domains shown)
VH: QVQLVQSGAEVKKPGASVKVSCKASGYTFTNYGMNWVRQAPGQGLEWMGWINTYTGESTYADDFEGRFVFSMDTSASTAYLQISSLKAEDTAVYYCARESLYDYYSMDYWGQGTTVTVSS
VL: DIVMTQTPLSLSVTPGQPASISCKSSQSLLHSDGKTYLNWLLQRPGQSPERLIYLVSELDSGVPDRFSGSGSGTDFTLKISRVEAEDVGVYYCWQGTHFPYTFGGGTKVEIKR
notes: also called hLAG-3 1 (1.2)
Kd [6]: 0.01 nM

B4: hLAG-3 mAb 1 (1.4), human IgG1 (AA) (antibody)
heavy: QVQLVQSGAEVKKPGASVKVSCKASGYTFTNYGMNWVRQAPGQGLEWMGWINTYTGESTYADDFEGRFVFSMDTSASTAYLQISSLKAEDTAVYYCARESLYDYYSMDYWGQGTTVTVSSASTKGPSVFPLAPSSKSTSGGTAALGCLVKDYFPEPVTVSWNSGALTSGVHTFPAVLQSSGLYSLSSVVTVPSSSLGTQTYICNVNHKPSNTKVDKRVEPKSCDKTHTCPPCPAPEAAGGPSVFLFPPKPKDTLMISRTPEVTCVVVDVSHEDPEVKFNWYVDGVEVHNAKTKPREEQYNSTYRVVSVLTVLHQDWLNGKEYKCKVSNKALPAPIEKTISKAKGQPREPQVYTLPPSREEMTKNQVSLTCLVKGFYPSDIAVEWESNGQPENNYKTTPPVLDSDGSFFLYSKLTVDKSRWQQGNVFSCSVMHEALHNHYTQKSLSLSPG
light: DIVMTQTPLSLSVTPGQPASISCKSSQSLLHSDAKTYLNWLLQKPGQPPERLIYLVSELDSGVPDRFSGSGSGTDFTLKISRVEAEDVGVYYCWQGTHFPYTFGGGTKVEIKRTVAAPSVFIFPPSDEQLKSGTASVVCLLNNFYPREAKVQWKVDNALQSGNSQESVTEQDSKDSTYSLSSTLTLSKADYEKHKVYACEVTHQGLSSPVTKSFNRGEC
notes: also called hLAG-3 mAb 1 (1.4)^c, e
Kd [7]: 0.04 nM

B5: hLAG-3 mAb 1 (2.2), human IgG1 (AA) (antibody, V domains shown)
VH: QVQLVQSGAEVKKPGASVKVSCKASGYTFTNYGMNWVRQAPGQGLEWMGWINTYTGESTYADDFEGRFVFSMDTSASTAYLQISSLKAEDTAVYFCARESLYDYYSMDYWGQGTTVTVSS
VL: DIVMTQTPLSLSVTPGQPASISCKSSQSLLHSDGKTYLNWLLQRPGQSPERLIYLVSELDSGVPDRFSGSGSGTDFTLKISRVEAEDVGVYYCWQGTHFPYTFGGGTKVEIKR
notes: also called hLAG-3 1 (2.2)
Kd [6]: 0.3 nM

B6: hLAG-3 mAb 1 (1.1), human IgG1 (AA) (antibody, V domains shown)
VH: QVQLVQSGAEVKKPGASVKVSCKASGYTFTNYGMNWVRQAPGQGLEWMGWINTYTGESTYADDFEGRFVFSMDTSASTAYLQISSLKAEDTAVYYCARESLYDYYSMDYWGQGTTVTVSS
VL: DIVMTQTPLSLSVTPGQPASISCKSSQSLLHSDGKTYLNWLLQKPGQSPERLIYLVSELDSGVPDRFSGSGSGTDFTLKISRVEAEDVGVYYCWQGTHFPYTFGGGTKVEIKR
notes: also called hLAG-3 1 (1.1)
Kd [6]: 0.04 nM

B7: hLAG-3 mAb 1 (1.4), IgG4 (S228P) (antibody)
heavy: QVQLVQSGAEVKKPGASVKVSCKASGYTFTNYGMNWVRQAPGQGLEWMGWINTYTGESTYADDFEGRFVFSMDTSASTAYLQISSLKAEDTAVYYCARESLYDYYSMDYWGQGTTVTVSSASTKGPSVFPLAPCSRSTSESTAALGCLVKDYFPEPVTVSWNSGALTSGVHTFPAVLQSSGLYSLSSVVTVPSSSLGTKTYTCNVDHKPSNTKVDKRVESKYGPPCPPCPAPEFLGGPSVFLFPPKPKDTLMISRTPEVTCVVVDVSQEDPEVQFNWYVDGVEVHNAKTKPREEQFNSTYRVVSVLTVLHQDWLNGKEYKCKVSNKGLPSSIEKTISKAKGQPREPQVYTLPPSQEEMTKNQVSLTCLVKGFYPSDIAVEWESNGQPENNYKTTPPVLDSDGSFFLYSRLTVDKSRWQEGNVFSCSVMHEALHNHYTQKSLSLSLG
light: DIVMTQTPLSLSVTPGQPASISCKSSQSLLHSDAKTYLNWLLQKPGQPPERLIYLVSELDSGVPDRFSGSGSGTDFTLKISRVEAEDVGVYYCWQGTHFPYTFGGGTKVEIKRTVAAPSVFIFPPSDEQLKSGTASVVCLLNNFYPREAKVQWKVDNALQSGNSQESVTEQDSKDSTYSLSSTLTLSKADYEKHKVYACEVTHQGLSSPVTKSFNRGEC
notes: also called hLAG-3 mAb 1 (1.4)^c, f
Kd [7]: 0.05 nM

B8: LAG-3 mAb 3 (antibody, V domains shown)
VH: EVRLQQSGPELVKPGASVKISCKASGYTFTDYNIHWVRQSHGQSLEWIGYIYPYNGDTGYNQKFKTKATLTVDNSSNTAYMELRSLASEDSAVYYCTRWSRNYFGPWFAYWGQGTLVTVSA
VL: DIVLTQSPTSLAVSLGQRATISCKASQSVDYDGDSYMNWYQQKPGQPPKLLIYAASNLESGIPARFSGSGSGTDFTLNIHPVEEEDAATYYCQQSSEDPLTFGAGTKLELK
notes: Murine monoclonal antibody
IC50 (read off the curve) [8]: ~3 ng/mL | Kd [2]: 4.4 nM | IC50 (read off the curve) [9]: ~30 nM

B9: LAG-3 mAb 4 (antibody, V domains shown)
VH: EVQLHQSGPELVKPGASVKISCKTSGYTFTDYNIHWVKQSHGKSLEWIGYIYPYNGDAGYNQNFKTKATLTVDNSSSTAYMELRSLTSEDSAVYYCARWNMNYFGPWFAYWGQGTLVTVSA
VL: DIVLTQSPASLAVSLGQRATISCKASQSVDYDGVTYINWYQQKPGQPPKLLIFAASNLESGIPARFSGSGSGTDFTLNIHPVEEEDAATYYCQQSNEDPLTFGAGTKLELK
notes: Murine monoclonal antibody
IC50 (read off the curve) [8]: ~3 ng/mL | Kd [2]: 0.8 nM

B10: LAG-3 mAb 2 (antibody, V domains shown)
VH: EVQLQQSGPELVKPGASVKISCKTSGYTFTDYNIHWLRQSHGESLEWIGYIYPYSGDIGYNQKFKNRATLTVDNSSSTAYMDLRSLTSEDSAVFYCARWHRNYFGPWFAYWGQGTPVTVSA
VL: DIVLTQSPASLAVSLGQRATISCKASQSVDYDGESYMNWYQQKPGQPPKLLIYVVSNLESGIPARFSGSGSGTDFTLNIHPVEEEDAATYYCQQSSEDPLTFGAGTKLELK
notes: Murine monoclonal antibody
IC50 (read off the curve) [8]: ~3 ng/mL | Kd [2]: 1.9 nM

B11: LAG-3 mAb 5 (antibody, V domains shown)
VH: EVQLQQSGPELVKPGASVKISCKASGYTFTDYNIHWVKQSPGKSLEWIGYIYPYSGDFGYNQKFKSKATLTVDNSSSTAYMDLRSLTSEDSAVFYCARWHRNYFGPWFAYWGQGTLVTVSA
VL: DIVLTQSPASLAVSLGQRATISCKASQSVDYDGESYMNWYQQKPGQPPKLLIYVVSNLESGIPARFSGSGSGTDFTLNIHPVEEEDAATYYCQQSSEDPLTFGAGTKLELK
notes: Murine monoclonal antibody
IC50 (read off the curve) [8]: ~3 ng/mL | Kd [2]: 0.9 nM | IC50 (read off the curve) [9]: ~30 nM

B12: LAG-3 mAb A (antibody, V domains shown)
VH: QVQLQQWGAGLLKPSETLSLTCAVYGGSFSDYYWNWIRQPPGKGLEWIGEINHNGNTNSNPSLKSRVTLSLDTSKNQFSLKLRSVTAADTAVYYCAFGYSDYEYNWFDPWGQGTLVTVSS
VL: EIVLTQSPATLSLSPGERATLSCRASQSISSYLAWYQQKPGQAPRLLIYDASNRATGIPARFSGSGSGTDFTLTISSLEPEDFAVYYCQQRSNWPLTFGQGTNLEIK
notes: also called 25F7; BMS-986016
IC50 (read off the curve) [1]: ~0.1 µg/mL | IC50 (read off the curve) [8]: ~3 ng/mL | IC50 (read off the curve) [4]: ~0.2 nM

B13: LAG-3 mAb 1 (antibody, V domains shown)
VH: QIQLVQSGPELKKPGETVKISCKASGYTFRNYGMNWVKQAPGKVLKWMGWINTYTGESTYADDFEGRFAFSLGTSASTAYLQINILKNEDTATYFCARESLYDYYSMDYWGQGTSVTVSS
VL: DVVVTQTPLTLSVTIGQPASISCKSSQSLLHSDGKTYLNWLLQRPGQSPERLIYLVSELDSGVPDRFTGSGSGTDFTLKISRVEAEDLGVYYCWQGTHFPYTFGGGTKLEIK
notes: Murine monoclonal antibody; also called murine anti-human antibody LAG-3 mAb 1
IC50 (read off the curve) [1]: ~0.1 µg/mL | IC50 (read off the curve) [8]: ~3 ng/mL | Kd [2]: 0.013 nM | IC50 (read off the curve) [9]: ~20 nM | Kd [10]: 0.01 nM

B14: hLAG-3 mAb 6 (1.1) (antibody, V domains shown)
VH: QVQLVQSGAEVKKPGASVKVSCKASGYTFTDYNMDWVRQAPGQGLEWMGDINPDNGVTIYNQKFEGRVTMTTDTSTSTAYMELRSLRSDDTAVYYCAREADYFYFDYWGQGTTLTVSS
VL: DIQMTQSPSSLSASVGDRVTITCRASQDVSSVVAWYQQKPGKAPKLLIYSASYRYTGVPSRFSGSGSGTDFTLTISSLQPEDFATYYCQQHYSTPWTFGGGTKLEIK
notes: also called hLAG-3 6 (1.1); humanized LAG-3 mAb 6
Kd [3]: < 0.1 nM | IC50 (read off the curve) [4]: ~0.3 nM | Kd [5]: 3.7 nM
